For 32 molecules, binding signal results are on record in article PMC12636033, “Chemical Engineering of Transcription Factors Uncovered Cell-Permeable μMax Modulators”.

First the molecules themselves.
B1: dBr_Jan07_20372 (dsDNA)
DNA 1: TCGTTTGTACACGTGGGTTTGCAAGAGTAAGTGTCCGTCTGTGTTCCGTTGTCCGTGCTG
DNA 2: CAGCACGGACAACGGAACACAGACGGACACTTACTCTTGCAAACCCACGTGTACAAACGA
B2: dBr_Jan07_02651 (dsDNA)
DNA 1: TGCATAACGACCGGCACGTGCCTTTCATATGTATCTGTCTGTGTTCCGTTGTCCGTGCTG
DNA 2: CAGCACGGACAACGGAACACAGACAGATACATATGAAAGGCACGTGCCGGTCGTTATGCA
B3: dBr_Jan07_16170 (dsDNA)
DNA 1: TACTAGATTACTACAGACGTTTGCGATCACGTGCATGTCTGTGTTCCGTTGTCCGTGCTG
DNA 2: CAGCACGGACAACGGAACACAGACATGCACGTGATCGCAAACGTCTGTAGTAATCTAGTA
B4: dBr_Jan07_31948 (dsDNA)
DNA 1: TGTCATTACCTGTCCGAGCAGGACAAAAAACCACGTGTCTGTGTTCCGTTGTCCGTGCTG
DNA 2: CAGCACGGACAACGGAACACAGACACGTGGTTTTTTGTCCTGCTCGGACAGGTAATGACA
B5: dBr_Jan07_17989 (dsDNA)
DNA 1: GTCACGTGAATGCGACCCGCCAATTGGAAATTAAATGTCTGTGTTCCGTTGTCCGTGCTG
DNA 2: CAGCACGGACAACGGAACACAGACATTTAATTTCCAATTGGCGGGTCGCATTCACGTGAC
B6: dBr_Jan07_18904 (dsDNA)
DNA 1: CCCGGATAATATTTCGGCTTCAAGAATCACGTGGAAGTCTGTGTTCCGTTGTCCGTGCTG
DNA 2: CAGCACGGACAACGGAACACAGACTTCCACGTGATTCTTGAAGCCGAAATATTATCCGGG
B7: dBr_Jan07_37497 (dsDNA)
DNA 1: CCAGTTAGTAACACGTGTCCACTCCTTGTCGTACAGGTCTGTGTTCCGTTGTCCGTGCTG
DNA 2: CAGCACGGACAACGGAACACAGACCTGTACGACAAGGAGTGGACACGTGTTACTAACTGG
B8: dBr_Jan07_08390 (dsDNA)
DNA 1: GTATTGTTGCGTATGTCACGTGGTACAAAACCCAGGGTCTGTGTTCCGTTGTCCGTGCTG
DNA 2: CAGCACGGACAACGGAACACAGACCCTGGGTTTTGTACCACGTGACATACGCAACAATAC
B9: dBr_Jan07_09181 (dsDNA)
DNA 1: CACATTATTTCACACGTGGACGGCACCCACAAACACGTCTGTGTTCCGTTGTCCGTGCTG
DNA 2: CAGCACGGACAACGGAACACAGACGTGTTTGTGGGTGCCGTCCACGTGTGAAATAATGTG
B10: dBr_Jan07_01836 (dsDNA)
DNA 1: GTCGAGAATCCAATACGCCACGTGCATACGTACGTCGTCTGTGTTCCGTTGTCCGTGCTG
DNA 2: CAGCACGGACAACGGAACACAGACGACGTACGTATGCACGTGGCGTATTGGATTCTCGAC
B11: dBr_Jan07_13904 (dsDNA)
DNA 1: CGCTGCCCCATATTTGTCATGCGTTTGCGGCACGTGGTCTGTGTTCCGTTGTCCGTGCTG
DNA 2: CAGCACGGACAACGGAACACAGACCACGTGCCGCAAACGCATGACAAATATGGGGCAGCG
B12: dBr_Jan07_23485 (dsDNA)
DNA 1: CAGTGTAGAAAGTGAACACGTGTGACACGCCTGGTTGTCTGTGTTCCGTTGTCCGTGCTG
DNA 2: CAGCACGGACAACGGAACACAGACAACCAGGCGTGTCACACGTGTTCACTTTCTACACTG
B13: dBr_Jan07_25426 (dsDNA)
DNA 1: TCTCTGTGCGGCGGGGTCCATAGCACGCACGTGTTAGTCTGTGTTCCGTTGTCCGTGCTG
DNA 2: CAGCACGGACAACGGAACACAGACTAACACGTGCGTGCTATGGACCCCGCCGCACAGAGA
B14: dBr_Jan07_24960 (dsDNA)
DNA 1: CGCAAAGCATTATCAACCTGGGTGCCTATCACGTGGGTCTGTGTTCCGTTGTCCGTGCTG
DNA 2: CAGCACGGACAACGGAACACAGACCCACGTGATAGGCACCCAGGTTGATAATGCTTTGCG
B15: dBr_Jan07_23881 (dsDNA)
DNA 1: CATATTAGACCGGCGTATACGCACGTGGCGTAGATTGTCTGTGTTCCGTTGTCCGTGCTG
DNA 2: CAGCACGGACAACGGAACACAGACAATCTACGCCACGTGCGTATACGCCGGTCTAATATG
B16: dBr_Jan07_36232 (dsDNA)
DNA 1: CCATGCCAACTAGGCGCACGTGATTGTTCGAGAACTGTCTGTGTTCCGTTGTCCGTGCTG
DNA 2: CAGCACGGACAACGGAACACAGACAGTTCTCGAACAATCACGTGCGCCTAGTTGGCATGG
B17: dBr_Jan07_11048 (dsDNA)
DNA 1: CGAAATCTTACATGCTCTTGGGTCTAAGACGCACGTGTCTGTGTTCCGTTGTCCGTGCTG
DNA 2: CAGCACGGACAACGGAACACAGACACGTGCGTCTTAGACCCAAGAGCATGTAAGATTTCG
B18: dBr_Jan07_20580 (dsDNA)
DNA 1: AAATACCTATCGATAACCACTCACGTGGTGGTTCGCGTCTGTGTTCCGTTGTCCGTGCTG
DNA 2: CAGCACGGACAACGGAACACAGACGCGAACCACCACGTGAGTGGTTATCGATAGGTATTT
B19: dBr_Jan07_14817 (dsDNA)
DNA 1: AGCGAGAGGCTGCTCACTCGTGGCAACACCCACGTGGTCTGTGTTCCGTTGTCCGTGCTG
DNA 2: CAGCACGGACAACGGAACACAGACCACGTGGGTGTTGCCACGAGTGAGCAGCCTCTCGCT
B20: dBr_Jan07_10488 (dsDNA)
DNA 1: ACCTCGGACATGCACATTTGTCTTAAACCACGTGCGGTCTGTGTTCCGTTGTCCGTGCTG
DNA 2: CAGCACGGACAACGGAACACAGACCGCACGTGGTTTAAGACAAATGTGCATGTCCGAGGT
B21: dBr_Jan07_03400 (dsDNA)
DNA 1: ACGTCGGCTATGATTTCACGCTATTCTAAGACACGTGTCTGTGTTCCGTTGTCCGTGCTG
DNA 2: CAGCACGGACAACGGAACACAGACACGTGTCTTAGAATAGCGTGAAATCATAGCCGACGT
B22: dBr_Jan07_06714 (dsDNA)
DNA 1: TTCCGCGTGGACGTGACATCGTAGACGATTACCCACGTCTGTGTTCCGTTGTCCGTGCTG
DNA 2: CAGCACGGACAACGGAACACAGACGTGGGTAATCGTCTACGATGTCACGTCCACGCGGAA
B23: dBr_Jan07_02368 (dsDNA)
DNA 1: CTGTAGAACTGGCATCTTCAATCCACCGCGTGGTGAGTCTGTGTTCCGTTGTCCGTGCTG
DNA 2: CAGCACGGACAACGGAACACAGACTCACCACGCGGTGGATTGAAGATGCCAGTTCTACAG
B24: dBr_Jan07_28926 (dsDNA)
DNA 1: CGCAGCCATTACCGCGTGGGAGTATTCGCCCGTACGGTCTGTGTTCCGTTGTCCGTGCTG
DNA 2: CAGCACGGACAACGGAACACAGACCGTACGGGCGAATACTCCCACGCGGTAATGGCTGCG
B25: dBr_Jan07_41742 (dsDNA)
DNA 1: AGAGTCATTGGGGAGGCAAAATTCCCACGTGTATCGGTCTGTGTTCCGTTGTCCGTGCTG
DNA 2: CAGCACGGACAACGGAACACAGACCGATACACGTGGGAATTTTGCCTCCCCAATGACTCT
B26: dBr_Jan07_03394 (dsDNA)
DNA 1: ATGGACCAATTGCGCGGAATGACGTGTCGCGCACGTGTCTGTGTTCCGTTGTCCGTGCTG
DNA 2: CAGCACGGACAACGGAACACAGACACGTGCGCGACACGTCATTCCGCGCAATTGGTCCAT
B27: dBr_Jan07_17567 (dsDNA)
DNA 1: CCAAGAGGACCACGTGCTTTGGTCTCTAACTCGTATGTCTGTGTTCCGTTGTCCGTGCTG
DNA 2: CAGCACGGACAACGGAACACAGACATACGAGTTAGAGACCAAAGCACGTGGTCCTCTTGG
B28: dBr_Jan07_17036 (dsDNA)
DNA 1: ACATTTCTCCGCTCGTCCCACATAGCGTCACGTGGGGTCTGTGTTCCGTTGTCCGTGCTG
DNA 2: CAGCACGGACAACGGAACACAGACCCCACGTGACGCTATGTGGGACGAGCGGAGAAATGT
B29: dBr_Jan07_39189 (dsDNA)
DNA 1: GGCTTGCATTGTTGGGCCCACGTGTTGATTGTCTAAGTCTGTGTTCCGTTGTCCGTGCTG
DNA 2: CAGCACGGACAACGGAACACAGACTTAGACAATCAACACGTGGGCCCAACAATGCAAGCC
B30: dBr_Jan07_32059 (dsDNA)
DNA 1: CCGGTCACTGCCGGTGATGCCCTGCTTTATCACGTGGTCTGTGTTCCGTTGTCCGTGCTG
DNA 2: CAGCACGGACAACGGAACACAGACCACGTGATAAAGCAGGGCATCACCGGCAGTGACCGG
B31: dBr_Jan07_27306 (dsDNA)
DNA 1: ACTATACAGTTTATTCATACACGGGTGCCTGCACGTGTCTGTGTTCCGTTGTCCGTGCTG
DNA 2: CAGCACGGACAACGGAACACAGACACGTGCAGGCACCCGTGTATGAATAAACTGTATAGT
B32: dBr_Jan07_40749 (dsDNA)
DNA 1: CTTCATGTCGCCCGCGTGGGTTGCCACACCAAGTGCGTCTGTGTTCCGTTGTCCGTGCTG
DNA 2: CAGCACGGACAACGGAACACAGACGCACTTGGTGTGGCAACCCACGCGGGCGACATGAAG

The target in the data set is WT Max (Homo sapiens, UniProt P61244-2 13-93, M65Nle, norleucine written as M; other non-natural residues written as X). The data set can be described thus: PBM; 50-200 nM protein; PBS, 2% milk, BSA, salmon testes DNA, 0.02% Triton X-100. As to conditions: chain copies: 2; label: surface-attached array probe.
Sequence of WT Max (P61244 other isoform, or with tags, fused parts or gaps M65Nle): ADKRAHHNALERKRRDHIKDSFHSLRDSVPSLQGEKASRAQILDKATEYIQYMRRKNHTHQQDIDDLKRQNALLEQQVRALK
With B1, the binding signal was 4.3 robust z of log adjusted intensity (ours), mean of two arrays.

As for B2, the binding signal is 3.82 robust z of log adjusted intensity (ours), mean of two arrays.

For B3, the binding signal is 5.85 robust z of log adjusted intensity (ours), mean of two arrays.

For the molecule B4, the binding signal was 4.44 robust z of log adjusted intensity (ours), mean of two arrays.

With B5, the binding signal was 4.17 robust z of log adjusted intensity (ours), mean of two arrays.

Consider B6, for which the binding signal is 4.33 robust z of log adjusted intensity (ours), mean of two arrays.

As for B7, the binding signal was 4.27 robust z of log adjusted intensity (ours), mean of two arrays.

As to B8, the binding signal was 4.12 robust z of log adjusted intensity (ours), mean of two arrays.

In the case of B9, the binding signal is 3.99 robust z of log adjusted intensity (ours), mean of two arrays.

As to B10, the binding signal was 3.94 robust z of log adjusted intensity (ours), mean of two arrays.

On to B11, for which the binding signal was 3.73 robust z of log adjusted intensity (ours), mean of two arrays.

B12: the binding signal was 4.26 robust z of log adjusted intensity (ours), mean of two arrays.

B13: the binding signal was 4.48 robust z of log adjusted intensity (ours), mean of two arrays.

Regarding B14, the binding signal was 4.08 robust z of log adjusted intensity (ours), mean of two arrays.

For B15, the binding signal is 4.35 robust z of log adjusted intensity (ours), mean of two arrays.

Consider B16, for which the binding signal was 4.03 robust z of log adjusted intensity (ours), mean of two arrays.

Turning to B17, the binding signal was 5.56 robust z of log adjusted intensity (ours), mean of two arrays.

Consider B18, for which the binding signal is 3.85 robust z of log adjusted intensity (ours), mean of two arrays.

Take B19: the binding signal was 4.16 robust z of log adjusted intensity (ours), mean of two arrays.

On to B20, for which the binding signal is 4.16 robust z of log adjusted intensity (ours), mean of two arrays.

B21: the binding signal is 4.73 robust z of log adjusted intensity (ours), mean of two arrays.

As for B22, the binding signal is 4.26 robust z of log adjusted intensity (ours), mean of two arrays.

As for B23, the binding signal is 5.5 robust z of log adjusted intensity (ours), mean of two arrays.

Take B24: the binding signal was 3.92 robust z of log adjusted intensity (ours), mean of two arrays.

For B25, the binding signal is 4.07 robust z of log adjusted intensity (ours), mean of two arrays.

With B26, the binding signal is 3.89 robust z of log adjusted intensity (ours), mean of two arrays.

Turning to B27, the binding signal was 3.82 robust z of log adjusted intensity (ours), mean of two arrays.

For the molecule B28, the binding signal was 4.03 robust z of log adjusted intensity (ours), mean of two arrays.

B29: the binding signal was 4.2 robust z of log adjusted intensity (ours), mean of two arrays.

On to B30, for which the binding signal is 4.08 robust z of log adjusted intensity (ours), mean of two arrays.

On to B31, for which the binding signal is 3.99 robust z of log adjusted intensity (ours), mean of two arrays.

B32: the binding signal was 4.44 robust z of log adjusted intensity (ours), mean of two arrays.
